Results as given in publication PMC9864776, “Synthesis of Novel Polymer-Assisted Organic-Inorganic Hybrid Nanoflowers and Their Application in Cascade Biocatalysis” (Molecules, 2023).

Substrate: OC[C@H]1OC(O)[C@H](O)[C@@H](O)[C@@H]1O
Experiment: purified protein
Type: biochemical, Aspergillus niger
Settings: apparent Km of the whole cascade with free HRP, glucose 50-175 µM (all below Km), TMB 2 mM, 0.2 M acetate buffer (pH 4 in the standard assay), 20-23 °C, free enzymes

B1: glucose oxidase (GOx), Aspergillus niger type VIII (Aspergillus niger) (protein)
chain: LPHYIRSNGIEASLLTDPKDVSGRTVDYIIAGGGLTGLTTAARLTENPNISVLVIESGSYESDRGPIIEDLNAYGDIFGSSVDHAYETVELATNNQTALIRSGNGLGGSTLVNGGTWTRPHKAQVDSWETVFGNEGWNWDNVAAYSLQAERARAPNAKQIAAGHYFNASCHGVNGTVHAGPRDTGDDYSPIVKALMSAVEDRGVPTKKDFGCGDPHGVSMFPNTLHEDQVRSDAAREWLLPNYQRPNLQVLTGQYVGKVLLSQNGTTPRAVGVEFGTHKGNTHNVYAKHEVLLAAGSAVSPTILEYSGIGMKSILEPLGIDTVVDLPVGLNLQDQTTATVRSRITSAGAGQGQAAWFATFNETFGDYSEKAHELLNTKLEQWAEEAVARGGFHNTTALLIQYENYRDWIVNHNVAYSELFLDTAGVASFDVWDLLPFTRGYVHILDKDPYLHHFAYDPQYFLNELDLLGQAAATQLARNISNSGAMQTYFAGETIPGDNLAYDADLSAWTEYIPYHFRPNYHGVGTCSMMPKEMGGVVDNAARVYGVQGLRVIDGSIPPTQMSSHVMTVFYAMALKISDAILEDYASMQ
notes: commercial native enzyme, Merck/Sigma Aldrich, type VIII; free in solution, together with HRP
Work on B1 yielded a Km of 1198 µM.
